Results as given in patent US7407671B2, “Temperature controlled solute delivery system” (Boston Scientific Scimed, Inc., priority 1998, dated 2008).

Assay: Solute release from bonded HPC gel membranes (modified HPLC system)
Format: physicochemical
Protocol: Solute release tests were conducted in the same manner as for PNIPA gels, as described in Example 1. The solute release experiments were designed to model the actual conditions of catheter use, which entail therapeutic solute loading at room temperature (25° C.), insertion of the catheter into the patient at 37° C., and temperature induced enhanced solute release when the catheter is placed at a target location in the body. While the experimental design was generally successful in modeling the actual use of catheter, heat lost to the experimental apparatus tubing reduced the 37° C. test temperature to 33° C. Because the transition temperature of HPC is fairly sharp (in this case, 43° C.), the reduction of test temperature from 37° C. to 33° C. had little impact on the test results.
Solute release experiments were conducted under four constant temperature conditions and three step change conditions. […] Thus, test temperatures below and above the transition temperature of HPC (43° C.) were used. […]

B1: ovalbumin: ovalbumin (M.w. 45,000 Da), model protein for bioactive proteins such as urokinase (protein, UniProt P01012 2-386, looked up)
Ovalbumin: GSIGAASMEFCFDVFKELKVHHANENIFYCPIAIMSALAMVYLGAKDSTRTQINKVVRFDKLPGFGDSIEAQCGTSVNVHSSLRDILNQITKPNDVYSFSLASRLYAEERYPILPEYLQCVKELYRGGLEPINFQTAADQARELINSWVESQTNGIIRNVLQPSSVDSQTAMVLVNAIVFKGLWEKAFKDEDTQAMPFRVTEQESKPVQMMYQIGLFRVASMASEKMKILELPFASGTMSMLVLLPDEVSGLEQLESIINFEKLTEWTSSNVMEERKIKVYLPRMKMEEKYNLTSVLMAMGITDVFSSSANLSGISSAESLKISQAVHAAHAEINEAGREVVGSAEAGVDAASVSEEFRADHPFLFCIKHIATNAVLFFGRCVSP
HPC gel membrane 0.66 mm, first two minutes at 24° C.
  solute released before the temperature change: 11%
HPC gel membrane 0.66 mm, isothermal 24° C.
  solute released within the first 7 minutes of the test: about 30%
HPC gel membrane 0.66 mm, step 24° C. to 46° C.
  solute released in the five minutes immediately after the temperature change: 54%
HPC gel membrane 0.66 mm, step 24° C. to 46° C. after about two minutes
  solute released within the first 7 minutes of the test: about 65%
Triggered release from HPC gel
  ratio of the area of the convective pulse to the area of the isothermal release curve: much greater for ovalbumin than for methyl orange or estradiol
